The numbers were not newly measured in article PMC9966187, which cites them from elsewhere.

Take E-selectin (from UniProt P16581): the results for the Kd with C-(IELFQAR) peptide and with C-(IEELQAR) peptide were 16 µM and 35 µM, respectively.
